# Results as given in publication PMC3724804.
# Legend:
# [1] = molecular target: human cytoplasmic γ-actin (human) (UniProt P63261)
# [2] = molecular target: skeletal muscle α-actin (rabbit) (UniProt P68135)
# [3] = molecular target: human cytoplasmic β-actin (human) (UniProt P60709)
# [4] = molecular target: human cytoplasmic γ-actin (human) (UniProt P63261); remark: listed apart in the source
# [5] = molecular target: skeletal muscle α-actin (rabbit) (UniProt P68135); remark: listed apart in the source
# [6] = molecular target: human cytoplasmic β-actin (human) (UniProt P60709); remark: listed apart in the source
# [7] = molecular target: human cytoplasmic γ-actin (human) (UniProt P63261); remark: listed apart in the source
Substance,"Motility rate: sliding velocity of tropomyosin-decorated F-actin in the in vitro motility assay, 30°C [1] [nm/s]","Motility rate: sliding velocity of tropomyosin-decorated F-actin in the in vitro motility assay, 30°C [2] [nm/s]","Motility rate: sliding velocity of tropomyosin-decorated F-actin in the in vitro motility assay, 30°C [3] [nm/s]","K (app,actin): F-actin concentration for half-maximal activation of steady-state ATPase (NADH-coupled assay, 25°C) [4] [µM]",kcat of actin-activated steady-state ATPase [4] [s⁻¹],"K (app,actin): F-actin concentration for half-maximal activation of steady-state ATPase (NADH-coupled assay, 25°C) [5] [µM]",kcat of actin-activated steady-state ATPase [5] [s⁻¹],"K (app,actin): F-actin concentration for half-maximal activation of steady-state ATPase (NADH-coupled assay, 25°C) [6] [µM]",kcat of actin-activated steady-state ATPase [6] [s⁻¹],kcat of actin-activated steady-state ATPase (activity in the presence of 100 µM F-actin) [4] [s⁻¹],kcat of actin-activated steady-state ATPase (activity in the presence of 100 µM F-actin) [5] [s⁻¹],kcat of actin-activated steady-state ATPase (activity in the presence of 100 µM F-actin) [6] [s⁻¹],"ATP turnover in the flash photolysis experiment (5 µM F-actin), relative to α-actin [7] [fold]"
human nonmuscle myosin-2A motor domain (residues 1–775) fused with two Dictyostelium discoideum α-actinin repeats (from UniProt P35579 1-775) (domain or fragment),94.6,76.3,84.2,88,0.77,80.2,0.18,94.6,0.81,,,,
human nonmuscle myosin-2C1 splice variant motor domain (residues 1–807) fused with two Dictyostelium discoideum α-actinin repeats (domain or fragment),61.2,51.7,60.9,> 100,,> 100,,> 100,,0.36,0.17,0.53,
human nonmuscle myosin-2B motor domain (residues 1–782) fused with two Dictyostelium discoideum α-actinin repeats (from UniProt P35580 1-782) (domain or fragment),32.7,30.1,35.2,86.9,0.63,82,0.15,95.1,0.67,,,,3
human myosin-7A motor domain construct (amino acids 1–747) fused with the artificial lever arm and EYFP (from UniProt Q13402 1-747) (domain or fragment),,,,11.3,0.75,12.3,0.35,12.3,0.53,,,,
